Reference: the supplement of paper PMC7125110
± gives the standard error. For some of these results: Fewer inactive variants are shown than the library holds.

B1: glmS ribozyme (parent)
chain: AUAAAAGCGCCAGAACUACAGAAAUGUAGUUGACGAGGAGGAGGUUUAUCGAAUUUUCGGCGGAUGCCUCCAAA

Legend:
Conditions in all cases: with glucosamine-6-phosphate
glucosamine-6-phosphate [1] = variants of: B1; test: kcat; higher = faster cleavage; RNA array
Summary of the method: (§1)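 Barcoded ribozyme variants, transcribed in situ by E. coli RNA polymerase on sequenced MiSeq chips, were followed via a hybridised Cy3 probe at 37 °C. Glucosamine-6-phosphate ranged from 40 μM to 10 mM in HEPES/KCl/Mg(OAc)2 buffer. kobs came from decay fits to per-tile medians, and kcat and KM from weighted Michaelis–Menten fits.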

glucosamine-6-phosphate [2] = variants of: B1; test: self-cleavage kobs at 640 uM GlcN6P; higher = faster cleavage; RNA array
Summary of the method: as §1

glucosamine-6-phosphate [3] = variants of: B1; test: self-cleavage kobs at 2500 uM GlcN6P; higher = faster cleavage; RNA array
Summary of the method: as §1

glucosamine-6-phosphate [4] = variants of: B1; test: self-cleavage kobs at 10000 uM GlcN6P; higher = faster cleavage; RNA array
Summary of the method: as §1

glucosamine-6-phosphate [5] = variants of: B1; test: self-cleavage kobs at 40 uM GlcN6P; higher = faster cleavage; RNA array
Summary of the method: as §1

glucosamine-6-phosphate [6] = variants of: B1; test: self-cleavage kobs at 160 uM GlcN6P; higher = faster cleavage; RNA array
Summary of the method: as §1

glucosamine-6-phosphate [7] = variants of: B1; test: KM; higher = weaker cofactor use; RNA array
Summary of the method: as §1

Row | Variant | kcat (glucosamine-6-phosphate [1]) [s⁻¹] | self-cleavage kobs at 640 uM GlcN6P (glucosamine-6-phosphate [2]) [s⁻¹] | self-cleavage kobs at 2500 uM GlcN6P (glucosamine-6-phosphate [3]) [s⁻¹] | self-cleavage kobs at 10000 uM GlcN6P (glucosamine-6-phosphate [4]) [s⁻¹] | self-cleavage kobs at 40 uM GlcN6P (glucosamine-6-phosphate [5]) [s⁻¹] | self-cleavage kobs at 160 uM GlcN6P (glucosamine-6-phosphate [6]) [s⁻¹] | KM (glucosamine-6-phosphate [7]) [µM]
1 | A15C A42G A53C | 0.00239 ± 0.001 | 0.000469 ± 0.00012 | 0.000746 ± 0.00018 | 0.00192 ± 0.00042 |  |  | 
2 | A14U U49C | < 1e-05 |  |  |  | < 1e-05 | < 1e-05 | 
3 | A14U G44A | 6.83e-05 ± 2.6e-06 |  | 3.21e-05 ± 6.8e-06 | 5.38e-05 ± 6.7e-06 |  | < 1e-05 | 2730 ± 310
4 | A14U G44U | 7.47e-05 ± 1.1e-05 |  | 3.42e-05 ± 8.1e-06 | 5.55e-05 ± 8.3e-06 | < 1e-05 |  | 3310 ± 1300
5 | A14G U65C | 0.00147 ± 0.00035 | 0.000445 ± 9.2e-05 | 0.00142 ± 0.00028 | 0.00124 ± 0.00025 | 7.25e-05 ± 1.9e-05 | 0.000176 ± 3.5e-05 | 1120 ± 420
6 | A14C U54G | 0.00619 ± 0.0017 | 0.00107 ± 0.00016 | 0.00296 ± 0.00041 | 0.00448 ± 0.00056 | 0.00011 ± 1.7e-05 | 0.000219 ± 3.6e-05 | 3310 ± 1300
7 | A14U A42U | 3.26e-05 ± 1.5e-06 |  |  | 3.02e-05 ± 7.7e-06 |  |  | 884 ± 270
8 | A14G C70A | 0.000511 ± 0.0001 | 0.000328 ± 4.7e-05 | 0.000484 ± 8.1e-05 |  | 6.67e-05 ± 5.7e-06 | 0.000287 ± 4.4e-05 | 256 ± 76
9 | A14G C70U | 0.0485 ± 0.02 | 0.0183 ± 0.0066 |  |  | 0.00188 ± 0.00021 | 0.00502 ± 0.002 | 1020 ± 470
10 | A14C A53G C58A C70G | 3.76e-05 ± 1.2e-05 |  |  |  |  | 5.16e-05 ± 2e-05 | 
11 | A14U A48G | 1.29e-05 ± 5.7e-06 |  |  |  |  | < 1e-05 | 
12 | A14C A15G G40U | 0.000605 ± 0.0002 | 8.18e-05 ± 1.4e-05 | 0.000171 ± 2.4e-05 | 0.000428 ± 7.3e-05 |  |  | 5380 ± 2700
13 | A14U A39U | 0.00814 ± 0.0024 | 0.00161 ± 0.00024 | 0.00346 ± 0.00063 | 0.00632 ± 0.00089 | 0.000133 ± 1.7e-05 | 0.000258 ± 6.7e-05 | 3050 ± 1200
14 | A14C U46A | 0.000352 ± 1.6e-05 | 9.13e-05 ± 1e-05 | 0.000194 ± 2.1e-05 | 0.000301 ± 3.2e-05 |  |  | 1880 ± 170
15 | A14C U46C | 0.000346 ± 4.7e-05 | 0.000128 ± 2.4e-05 |  | 0.000326 ± 4.5e-05 |  | 5.14e-05 ± 1.9e-05 | 1090 ± 350
16 | A14C U46G | 0.000823 ± 0.00019 | 0.000209 ± 2.4e-05 | 0.000478 ± 4.8e-05 | 0.000795 ± 0.0001 | 4.79e-05 ± 1.2e-05 | 8.78e-05 ± 1.5e-05 | 1630 ± 660
17 | A14C G41U | 0.000291 ± 6.9e-05 | 0.000102 ± 1.6e-05 | 0.000161 ± 2.2e-05 | 0.000272 ± 4.2e-05 |  |  | 
18 | A14C U47A | 0.00403 ± 0.00081 | 0.000676 ± 8.4e-05 | 0.00184 ± 0.0002 | 0.00348 ± 0.00048 | 7.39e-05 ± 9.6e-06 | 0.000213 ± 3.2e-05 | 2760 ± 760
19 | A14G G40A G41U G66A | 0.000815 ± 0.00014 | 0.000149 ± 3.6e-05 | 0.000356 ± 9.3e-05 | 0.000645 ± 0.0001 |  |  | 2850 ± 980
20 | A14U A33C | 7.66e-05 ± 5.8e-06 |  | 5.28e-05 ± 1.3e-05 | 6.52e-05 ± 7.3e-06 |  |  | 1620 ± 560
21 | A14G G29U U47G C70G | 8.6e-05 ± 1.6e-05 | 0.000119 ± 3.1e-05 | 6.72e-05 ± 1.5e-05 | 0.000118 ± 2.8e-05 |  |  | 
22 | A14U U31A | 0.0165 ± 0.0068 | 0.00488 ± 0.00072 | 0.00761 ± 0.0014 | 0.028 ± 0.0038 | 0.000492 ± 4e-05 | 0.00191 ± 0.00038 | 
23 | A14G G66C | 0.00168 ± 6.5e-05 | 0.000484 ± 0.00012 | 0.00114 ± 0.00025 | 0.00147 ± 0.00015 | 4.79e-05 ± 9.1e-06 |  | 1410 ± 110
24 | A14G G60A C70G | 1.55e-05 ± 4e-06 |  |  |  | < 1e-05 |  | 
25 | A14U G32A | 0.0126 ± 0.0035 | 0.00156 ± 0.00027 | 0.00376 ± 0.0007 | 0.0102 ± 0.001 | 0.000167 ± 1.7e-05 | 0.00046 ± 0.00011 | 3720 ± 1400
26 | A14U G32C | 0.000397 ± 4e-05 | 6.36e-05 ± 8.6e-06 | 0.000199 ± 1.9e-05 | 0.000294 ± 2.6e-05 |  |  | 3050 ± 580
27 | A14U U54C | 0.00754 ± 0.0024 | 0.00201 ± 0.00026 | 0.00338 ± 0.00053 | 0.00856 ± 0.0012 | 0.00021 ± 2.8e-05 | 0.000513 ± 8.8e-05 | 1830 ± 830
28 | A14U U54G | 0.00917 ± 0.0032 | 0.00128 ± 0.00026 | 0.00387 ± 0.00047 | 0.00759 ± 0.00076 | 0.000217 ± 2.4e-05 | 0.000382 ± 6.2e-05 | 
29 | A14U A53C | 0.00136 ± 0.00017 | 0.000309 ± 3.9e-05 | 0.000834 ± 7.7e-05 | 0.00105 ± 0.00014 | 3.59e-05 ± 9.1e-06 | 9.57e-05 ± 1.5e-05 | 1970 ± 410
